Measurements as given in patent US20250297032A1 (CONCEPT TO MEDICINE BIOTECH, published 2025).

What was measured:
[1] = biological target: T1, human FAPα on CHO-K1-hFAPα cells (human, UniProt Q12884 1-760); experiment: flow cytometry on CHO-K1-hFAPα cells
T1 construct: whole, on cells; also called cell-surface FAPα
T1 sequence (looked up): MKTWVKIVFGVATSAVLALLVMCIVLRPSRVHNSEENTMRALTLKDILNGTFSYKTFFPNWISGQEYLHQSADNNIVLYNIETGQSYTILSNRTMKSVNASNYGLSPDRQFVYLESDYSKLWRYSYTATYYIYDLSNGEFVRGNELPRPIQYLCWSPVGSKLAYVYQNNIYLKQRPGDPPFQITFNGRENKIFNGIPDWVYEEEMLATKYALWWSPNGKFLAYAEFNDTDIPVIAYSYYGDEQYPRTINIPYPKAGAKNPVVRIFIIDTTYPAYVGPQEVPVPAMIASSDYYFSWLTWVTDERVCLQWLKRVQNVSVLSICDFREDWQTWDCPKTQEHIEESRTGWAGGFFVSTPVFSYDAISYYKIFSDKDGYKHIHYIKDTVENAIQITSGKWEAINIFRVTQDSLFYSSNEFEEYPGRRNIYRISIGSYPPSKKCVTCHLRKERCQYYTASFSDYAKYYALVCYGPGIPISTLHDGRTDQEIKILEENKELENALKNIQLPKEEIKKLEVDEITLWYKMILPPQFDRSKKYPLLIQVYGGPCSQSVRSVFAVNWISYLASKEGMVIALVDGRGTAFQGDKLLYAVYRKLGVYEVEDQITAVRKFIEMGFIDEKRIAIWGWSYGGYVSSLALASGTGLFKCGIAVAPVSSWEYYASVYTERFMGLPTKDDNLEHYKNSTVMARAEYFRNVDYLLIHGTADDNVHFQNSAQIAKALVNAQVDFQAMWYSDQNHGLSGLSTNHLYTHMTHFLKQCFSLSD
Method: (§1) To evaluate the cell-based binding property to human FAPα, the tested antibodies were analyzed for their binding to CHO-K1-hFAPα by FACS. A total number of 1×10⁵ CHO-K1-hFAPα cells in each well were incubated with 4-fold serial diluted antibodies starting from 3 μg/ml for 30 minutes at 4° C. in FACS buffer. After wash by FACS buffer, PE conjugated-anti-human IgG antibody was added to each well and incubated at 4° C. for 30 minutes. After wash, MFI of PE was evaluated by MACSQuant Analyzer 16.

[2] = biological target: T1, human FAPα on CHO-K1-hFAPα cells; experiment: flow cytometry on CHO-K1-hFAPα cells (MFI of PE); parameters: unit not given beside the values
Method: as §1

[3] = biological target: T2, human FAPα-His tag (Sino biological) (human, UniProt Q12884 26-760); experiment: competitive ELISA on coated human FAPα; competitor (detected): FAP-G52-Bio
T2 construct: Bought protein; also called human FAPα-His protein; not shown: His tag
T2 sequence (looked up): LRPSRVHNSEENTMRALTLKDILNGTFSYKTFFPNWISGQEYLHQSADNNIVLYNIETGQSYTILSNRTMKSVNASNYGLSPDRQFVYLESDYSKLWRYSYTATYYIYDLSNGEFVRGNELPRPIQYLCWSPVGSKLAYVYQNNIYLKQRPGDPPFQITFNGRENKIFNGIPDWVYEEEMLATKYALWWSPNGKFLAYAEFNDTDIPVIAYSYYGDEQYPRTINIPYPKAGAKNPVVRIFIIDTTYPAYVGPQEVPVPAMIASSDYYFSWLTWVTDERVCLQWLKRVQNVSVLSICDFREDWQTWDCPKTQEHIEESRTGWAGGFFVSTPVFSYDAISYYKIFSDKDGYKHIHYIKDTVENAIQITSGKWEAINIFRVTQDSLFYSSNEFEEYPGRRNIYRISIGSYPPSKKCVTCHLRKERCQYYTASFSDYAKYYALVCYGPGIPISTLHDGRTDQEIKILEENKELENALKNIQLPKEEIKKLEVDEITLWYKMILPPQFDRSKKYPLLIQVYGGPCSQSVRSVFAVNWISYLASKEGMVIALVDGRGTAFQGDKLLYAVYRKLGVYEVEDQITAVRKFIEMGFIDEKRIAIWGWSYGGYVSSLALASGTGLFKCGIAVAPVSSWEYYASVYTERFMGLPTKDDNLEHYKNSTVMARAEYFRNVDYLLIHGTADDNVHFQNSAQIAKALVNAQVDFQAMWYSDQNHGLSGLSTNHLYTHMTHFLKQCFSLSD
Method: (§2) Briefly, microtiter plates were coated with human FAPα proteins at 0.5 μg/ml in PBS, 100 μl/well at 4° C. overnight, then blocked with 150 μl/well of 1% BSA. Serial dilutions of chimeric antibodies as well as biotin-conjugated reference mAb were added to each well and incubated for 1 hour at RT. The plates were washed with PBS/Tween and then incubate with streptavidin-HRP for 15 mins at RT. After washing, the plates were developed with TMB substrate and analyzed by spectrophotometer at OD 450 nm. According to the competition ability to reference mAbs (Benchmark, or “BMK”), all tested FAPα mAbs binds to the similar epitope as shown in Table 5.

[4] = biological target: T2, human FAPα-His tag (Sino biological); experiment: competitive ELISA on coated human FAPα; competitor (detected): FAP-I37-Bio
Method: Competitive ELISA was carried out to classify the FAPα mAbs based on the binding epitope to human FAPα.
as §2

[5] = biological target: T2, human FAPα-His tag (Sino biological); experiment: competitive ELISA on coated human FAPα; competitor (detected): FAP-J40-Bio
Method: as §2

[6] = biological target: T2, human FAPα-His tag (Sino biological); experiment: SPR (Biacore T200), mAb captured on Protein A chip, human FAPα-His as analyte
Method: The binding of the tested antibodies to recombinant FAPα protein (human FAPα-his tag) was tested with Biacore using a capture method. The mAbs were captured using Protein A chip. A serial dilution of human FAPα-his tag protein was injected over captured antibody for 3 mins at a flow rate of 30 μl/min. The antigen was allowed to dissociate for 800s. All the experiments were carried out on a Biacore T200. Data analysis was carried out using the Biacore T200 evaluation software.

[7] = biological target: T2, human FAPα-His tag (Sino biological); experiment: competitive ELISA on coated human FAPα; competitor (detected): FAPα (BMK)-Bio
Method: as §2

B1: G14 (antibody, V domains shown)
VH: QVQLLESGGGVVQPGRSLRLSCAASGFTFSSYAMHWVRQAPGKGLEWVAFISHDGNRNSYADSVRGRFTISRDNSKNTLYLQMNSLRAEDTAVYYCARDLGYYNGFSYWGQGTLVTVSA
VL: DIVMTQSPSSVSASVGDRVTITCRASQGISSWLAWYQQKPGKAPKLLIYAASSLQSGVPSRFSGSGSGTDFTLTISSLQPEDFATYYCQQANSFPPTFGPGTKVDIK
notes: Full human antibody from a Fab phage library; Tested as a mAb (detected with anti-human IgG, captured on Protein A); also called FAP-G14; FAP-G14-Bio (biotin-conjugated form)
- EC50 [1]: 0.073 ng/mL
- Cmax [2]: 515
- OD 450 nm [3]: 0.195 OD 450 nm
- OD 450 nm [4]: 0.457 OD 450 nm
- OD 450 nm [5]: 0.293 OD 450 nm
- Kd [6]: 0.522 nM
- koff [6]: 6.24e-05 s⁻¹
- kon [6]: 120000 M⁻¹ s⁻¹
- OD 450 nm [7]: 0.399 OD 450 nm

B2: I30 (antibody, V domains shown)
VH: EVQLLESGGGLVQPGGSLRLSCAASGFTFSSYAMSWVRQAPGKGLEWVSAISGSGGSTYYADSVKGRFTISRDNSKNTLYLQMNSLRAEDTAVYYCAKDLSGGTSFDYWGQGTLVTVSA
VL: AIRLTQSPSSVSASVGDRVTITCRASQGISSWLAWYQQKPGKAPKLLIYAASSLQSGVPSRFSGSGSGTDFTLTISSLQPEDFATYYCQQANSFPPTFGGGTKVEIK
notes: Tested as a mAb; also called 130; FAP-I30
- EC50 [1]: 0.08 ng/mL
- Cmax [2]: 455
- OD 450 nm [3]: 0.146 OD 450 nm
- OD 450 nm [4]: 0.219 OD 450 nm
- OD 450 nm [5]: 0.16 OD 450 nm
- Kd [6]: 0.454 nM
- koff [6]: 6.2e-05 s⁻¹
- kon [6]: 137000 M⁻¹ s⁻¹
- OD 450 nm [7]: 0.151 OD 450 nm

B3: J40 (antibody, V domains shown)
VH: EVQLLESGGGLVQPGGSLRLSCAASGFTFSSYAMSWVRQAPGKGLEWVSAISGSGGSTYYADSVKGRFTISRDNSKNTLYLQMNSLRTDDTAVYYCARDLTTSTGWESWGQGTLVTVSA
VL: NIQMTQSPSSVSASVGDRVTITCRASQGISSWLAWYQQKPGKAPKLLIYAASSLQSGVPSRFSGSGSGTDFTLTISSLQPEDFATYYCQQANSFPPTFGQGTKLEIK
notes: Tested as a mAb; also called FAP-J40; FAP-J40-Bio (biotin-conjugated form)
- EC50 [1]: 0.025 ng/mL
- Cmax [2]: 381
- OD 450 nm [3]: 0.206 OD 450 nm
- OD 450 nm [4]: 0.435 OD 450 nm
- OD 450 nm [5]: 0.261 OD 450 nm
- Kd [6]: 1.01 nM
- koff [6]: 7.31e-05 s⁻¹
- kon [6]: 72200 M⁻¹ s⁻¹
- OD 450 nm [7]: 0.343 OD 450 nm

B4: I37 (antibody, V domains shown)
VH: QLQLVESGGGLVQPGGSLRLSCAASGFTFSSYAMSWVRQAPGKGLEWVSAISGSGGSTYYADSVKGRFTISRDNSKNTLYLQMNSLRAEDTAVYYCARDKPWGGSFDYWGQGTLVTVSA
VL: DIQLTQSPSSLSASVGDRVTITCRASQGISSWLAWYQQKPGKAPKLLIYAASSLQSGVPSRFSGSGSGTDFTLTISSLQPEDFATYYCQQANSFPVTFGPGTKVDIK
notes: Tested as a mAb; also called FAP-I37
- EC50 [1]: 0.057 ng/mL
- Cmax [2]: 465
- OD 450 nm [3]: 0.18 OD 450 nm
- OD 450 nm [4]: 0.602 OD 450 nm
- OD 450 nm [5]: 0.314 OD 450 nm
- Kd [6]: 0.855 nM
- koff [6]: 0.000154 s⁻¹
- kon [6]: 180000 M⁻¹ s⁻¹
- OD 450 nm [7]: 0.46 OD 450 nm
